# Laboratory results as given in patent US20040022780A1, “Serine protease and topical retinoid compositions useful for treatment of acne vulgarise and production of anti-aging effects” (priority 1997, published 2004).
# B1: trypsin (protein, UniProt P00760 24-246, looked up)
# Serine protease 1: IVGGYTCGANTVPYQVSLNSGYHFCGGSLINSQWVVSAAHCYKSGIQVRLGEDNINVVEGNEQFISASKSIVHPSYNSNTLNNDIMLIKLKSAASLNSRVASISLPTSCASAGTQCLISGWGNTKSSGTSYPDVLKCLKAPILSDSSCKSAYPGQITSNMFCAGYLEGGKDSCQGDSGGPVVCSGKLQGIVSWGSGCAQKNKPGVYTKVCNYVSWIKQTIASN
# notes: lyophilyzed trypsin from Sigma-Aldrich, a serine protease, in Hepes buffer mixed with GDL liposomes
# Assays:
# [1] = tested on: involucrin; test: RT-PCR gene expression in skin, involucrin; type: in vivo, Rhino mouse; conditions: trypsin (0.0001-0.01% (w/v)) daily for five days, dose dependent
# Description: Rhino mice of Example 1 were treated daily with trypsin compositions (0% (w/v), 0.0001% (w/v), 0.001% (w/v), and 0.01% (w/v)), as prepared in Example 2, for five days and sacrificed at day eight. The skins of vehicle treated mice and trypsin-treated mice were obtained as described in Example 3, then their total RNAs were extracted using “RNA Stat-60” reagent available from Tel-Test “B,” Inc. as described in Chomczymski, “Single Step Method of RNA Isolation By Acid Guanidinium Thiocyanate-phenol-chloroform extraction,” 162 Anal. Biochem. 156-59 (1987) which is incorporated herein by reference in its entirety. A sufficient amount of RNase-free DNase available from Promega, Corp. under the tradename “RQ1 RNase-free DNase” was then added to the extracted RNA from each mouse such that each respective product contained 200 ng of DNased-RNA using the procedure set forth in “RNase-free DNase” protocol published by Promega, Corp. (May, 1995). […]
# The PCR products were then analyzed on 2% agarose/ethidium bromide gels according to methods well-known in the art in order to compare the level of expression of certain genes in skins of trypsin-treated and untreated mice. […]
# [2] = tested on: Rhino mouse skin; test: Cutometer analysis of skin elasticity, Rhino mouse; type: in vivo
# Description: To quantitate this effect, a cutometer analysis was performed. We used a cutometer available from Acaderm (Menlo Park, Calif.), and employed the methods described in Couturaud et al., “Skin Biomechanical Properties: In Vivo Evaluation of Influence of Age and Body Site by a Non-Invasive Method,” 1 Skin Res. and Technol. 68-73 (1995) and Elsner et al., “Mechanical Properties of Human Forearm and Vulvar Skin,” 122 Br. J. Dermatol. 607-614 (1990) which are both incorporated herein by reference in their entirety. Suction was applied through a 2 mm aperture and the corresponding skin displacement and recovery after release of the negative pressure were measured. In human studies, an improvement in the ratios of deformation parameters Ua/Uf (skin fatigue, or total recovery from the load), Ur/Uf (biological elasticity, or elastic recovery after loading), and Ur/Ue (firmness, or improvement in the deformation resistance of the skin) indicates better tonicity and elasticity of the skin. The deformation parameters Ue, Uf, Ua, and Ur are dependent, in part, on skin thickness. Consequently, ratios were used for evaluation as described in Barel et al., “Suction Method for Measurement of Skin Mechanical Properties: The Cutometer,” Handbook of Non-Invasive Methods and the Skin 335-340 (1995) which is incorporated herein by reference in its entirety.
# [3] = tested on: Rhino mouse skin; test: Transepidermal water loss (TEWL), evaporimeter on dorsal skin; type: in vivo; conditions: for TEWL: topical once daily for five days
# Source text: Rhino mice of Example 1 were topically treated with the trypsin compositions (0.001% (w/v)-1% (w/v)) of Example 2 once daily for five days. Animals were sacrificed at day 8 and image analysis was used to quantify the reduction in utriculi size. For image analysis, whole mount epidermis was processed and microscopic measurements were taken according to the methods described in Mezick as well as Bernerd et al., “The Rhino Mouse Model: The Effects of Topically Applied All-Trans Retinoic Acid and CD271 on the Fine Structure of the Epidermis and Urticuli Wall of Pseudocomedones,” 283(2) Arch. Dermatol. Res. 100-107 (1991) and Bouclier et al., “Quantification of Epidermal Histological Changes Induced by Topical Retinoids and CD271 in the Rhino Mouse Model Using a Standardizing Image Analysis Technique,” 4(2) Skin Pharmacol. 65-73 (1991) which are each incorporated herein by reference in their entirety. Empire Imagins Database version 1.1 was used on a Gateway 2000 P5-100 computer for capturing images. Image Pro Plus version 1.3 was used for measurements and Microsoft Excel version 5.0 for data processing. The mean utriculus diameter (μ) and the mean sebaceous gland size (μ^2) were calculated for each treatment group (3 Rhino mice), using 5 random fields, two measurements per field, per animal. Percent reduction in utriculi diameter was calculated in accordance with the methods described in Finley, D. J., “Parallel Line Assays, Statistical Method in Biological Assay,” Charles Griffen & Company Ltd. 69-104 (1978) which is incorporated herein by reference in its entirety.
# To further characterize the effect of trypsin on the Rhino mouse skin, we measured the transepidermal water loss (“TEWL”) using an “Evaporimeter EPI” evaporimeter available from Servomed AB by first normalizing the evaporimeter with the ambient humidity and then placing the probe on the dorsal skin of the test subject at which point a reading of TEWL was taken.
molecule,measurement,setting,value
B1,level of involucrin,[1],increased
same,"Ua/Uf (skin fatigue, total recovery from the load)","[2]; Day 7, trypsin treated",0.593 ± 0.09
same,Ur/Ue (firmness),"[2]; Day 7, trypsin treated",0.557 ± 0.21
same,Ur/Uf (biological elasticity),"[2]; Day 7, trypsin treated",0.359 ± 0.22
same,"Ua/Uf (skin fatigue, total recovery from the load)","[2]; Day 12, trypsin treated",0.663 ± 0.10
same,Ur/Ue (firmness),"[2]; Day 12, trypsin treated",0.666 ± 0.24
same,Ur/Uf (biological elasticity),"[2]; Day 12, trypsin treated",0.548 ± 0.11
same,"Ua/Uf (skin fatigue, total recovery from the load)","[2]; Day 16, trypsin treated",0.675 ± 0.03
same,Ur/Ue (firmness),"[2]; Day 16, trypsin treated",0.733 ± 0.18
same,Ur/Uf (biological elasticity),"[2]; Day 16, trypsin treated",0.404 ± 0.08
same,TEWL,[3]; Trypsin 0.001% (w/v),29.53 ± 3.68 g/m^2h
same,TEWL,[3]; Trypsin 0.005% (w/v),26.40 ± 1.77 g/m^2h
same,TEWL,[3]; Trypsin 0.01% (w/v),28.53 ± 2.18 g/m^2h
same,TEWL,[3]; Trypsin 0.05% (w/v),36.57 ± 2.07 g/m^2h
same,TEWL,[3]; Trypsin 0.1% (w/v),42.80 ± 4.33 g/m^2h
same,TEWL,[3]; Trypsin 0.5% (w/v),36.23 ± 1.24 g/m^2h
same,TEWL,[3]; Trypsin 1.0% (w/v),42.00 ± 1.14 g/m^2h
same,trypsin concentration at which TEWL increase reached a plateau,[3]; once daily for five days,~0.05 % (w/v)
same,TEWL compared with retinoid treatment given alone,[3]; trypsin treated mice,lower than that for retinoid treatment given alone
